This note sets out measurements from the RNAGym collection of RNA variant scans (doi:10.1073/pnas.2313332121).

B1: TPR t1 (parent)
chain: GACCAAUCUGCCCUCAGAGCUCGAGAACAUCUUCGGAUGCAGAGGAGGCAGGCUUCGGUGGCGCGAUAGCGCCAACGUCCUCAACCUCCAAUGCAUCCCACCACAUGAUGAUGCCUGAAGAGCCUUGGUUUUUUG

Variants of B1 are the subject of this data set. The data set can be described thus: polymerase ribozyme fitness, log enrichment relative to wild type (log ratio); higher = more active; in vitro selection for triplet polymerase activity. The gist of the method: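 Fitness measures genotype enrichment against wild-type enrichment on a logarithmic scale, with inverse-variance-weighted averaging of replicates. The logarithm is base 2, and genotypes were kept only with ≥10 input reads and ≥1 read per output in Illumina sequencing. The sequenced libraries came from one triplicate in vitro selection round, including frozen incubation at −7 °C, of PCR-built, transcribed mutant libraries of each subunit of a heterodimeric triplet polymerase ribozyme.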
As for G51A U106A, the “polymerase ribozyme fitness (log ratio)” value is -2.35.
As for G52A A74G G122A C124U, the figure is 0.026; as for A50U C101A, -2.09.
The result for C49A C73A G93U reads -1.28; that for C49G G107A, -6.49.
As for A50G U55G C79G A91C U109A, the figure is -6.64; as for A50U G52C G77U U130C, -3.17; as for G51A A66U C104G A105U A121G, -7.62.
Consider G52U G61C C124G U131G, for which the “polymerase ribozyme fitness (log ratio)” value is -1.09.
On to A50C G110C, for which the “polymerase ribozyme fitness (log ratio)” value is -4.96.
The result for G52A G71C reads -3.42; that for C49A U96C G120U, -0.575; that for G52A C98U, -1.13.
As for G51A C101U G117A, the figure is -4.58.
Regarding A50C C115A U132C, the “polymerase ribozyme fitness (log ratio)” value was -0.367.
As for C49G G69C, the figure is -1.79; as for A50G C88G G120A C124U U126C, 0.11.
The result for G52U C64G C94U U106A A119G reads -6.74; that for C49U A84U C88A, -1.82.
As for C49U C76G, the figure is -0.454; as for C49A C124U, 0.812; as for G51U U67A A75U C88A U106A U112C, -6.98.
As to C49U C73U, the “polymerase ribozyme fitness (log ratio)” value was -0.609.
Turning to C49G G69U C115U, the “polymerase ribozyme fitness (log ratio)” value is 0.956.
Regarding C49G G63C C80U U112A C124U, the “polymerase ribozyme fitness (log ratio)” value was -5.99.
The result for C49G A83G C124G reads 1.03.
As for C49U C72U C89G, the figure is -1.87; as for G51C U59A C82U C98U, -5.66; as for C49G C62A U78C, -1.5.
As for A50U G58A U78C A103G U109G, the figure is -5.98.
As to G51U U55A C73U U78G C98U A105U, the “polymerase ribozyme fitness (log ratio)” value was -7.15.
The result for G52A A74G U78G C80A reads -3.14.
The result for G51A C88U reads -2.93; that for A50C C62A, -2.99.
The result for A50C C62G reads -2.66; that for C49U U112A, 0.631; that for C49G A119G C123G, 1.72.
As for G52A G93A, the “polymerase ribozyme fitness (log ratio)” value is -0.652.
For the variant A50C C94U, the “polymerase ribozyme fitness (log ratio)” value is -0.435.
For C49A G51C A100C U132A, the “polymerase ribozyme fitness (log ratio)” value was -5.52.
The result for G51C G93U reads -5.19; that for C49U A118U, -0.365; that for C49G C89A, -2.67.
As for G52A C124U, the figure is 0.924; as for G51A U87A C101A, -4.9.
Turning to G52U C53U C62U C85U U129A, the “polymerase ribozyme fitness (log ratio)” value was -3.42.
The result for G51A C86U U87A G113C reads -6.8; that for G52U C88G A118U, -0.0981.
As for G52U G60U C73U U96G A121G, the figure is -0.386.
As for A50G U112C U116A, the figure is -0.435.
Regarding C49U U106A U116C, the “polymerase ribozyme fitness (log ratio)” value was -1.79.
The result for G51U G57A C76A G110U G122U reads -5.8; that for A50C G63U G69U U81G G128C, -3.4; that for A50U A84C U125A, -1.62.
As for A50G U55A G69A, the figure is -2.85; as for C49A C82A, -1.17.
As for C49U G69A, the figure is -3.63; as for C49G G60C C86U, -0.802; as for G52A C79A G110C, -5.08.
As for G51U C104U, the “polymerase ribozyme fitness (log ratio)” value is -3.67.
Take C49G U92C: the “polymerase ribozyme fitness (log ratio)” value is -1.53.
As for C49G C88A G107U, the figure is -6.08; as for A50G C99U G110C, -7.74.
As for C49U A66G G120C C123G, the figure is -1.48.
As for C49A U54A C56U U112C, the figure is 1.59.
For G52A G63C, the “polymerase ribozyme fitness (log ratio)” value is -0.879.
As for G52A G63U C114A, the figure is -3.58; as for A50U G69U U81C C114A, -2.1; as for A50C C76G C82A G120C, -0.0695.
On to A50U G63U C104A, for which the “polymerase ribozyme fitness (log ratio)” value was -5.48.
The result for C49U C70G C102A A111C U116A G120C reads -6.27; that for G52U C80G, -4.76.
As for A50U G63C U78A U112C U116G A119C, the “polymerase ribozyme fitness (log ratio)” value was -6.63.
As for C49U C53A C104U, the figure is -0.231; as for G52U A74G A84G A121U, 0.168; as for A50C C73A A74U, -1.27.
On to G51C C72A, for which the “polymerase ribozyme fitness (log ratio)” value is -3.1.
As for A50C A121G, the figure is 1.73.
The result for G52A G61A U132A reads -0.488.
Take A50G C70U G113C: the “polymerase ribozyme fitness (log ratio)” value is -3.88.
With G52U G61A C94U, the “polymerase ribozyme fitness (log ratio)” value was -0.267.
As to G51A C99U, the “polymerase ribozyme fitness (log ratio)” value is -7.64.
As to G52U A83C C101G C115U, the “polymerase ribozyme fitness (log ratio)” value was -4.77.
The result for G52A C82U A90C G117C reads -3.56.
The result for G51U U125A reads -3.77.
The result for G51U C76A U106A reads -2.
With A50U C80A G122A G127C U129C, the “polymerase ribozyme fitness (log ratio)” value was -5.15.
The result for A50G G120A reads 0.658; that for C49U C62G, -4.14.
As to C49A C94U, the “polymerase ribozyme fitness (log ratio)” value was 0.159.
Consider A50U C62U A91C, for which the “polymerase ribozyme fitness (log ratio)” value was -3.88.
As to C49A G52U G71C, the “polymerase ribozyme fitness (log ratio)” value was -1.75.
The result for G51C C62U reads -3.45; that for A50U G69A, -3.65; that for A50U A84G A111C, -4.92.
The result for C49A U131C reads -0.0361; that for A50C G117C, -3.5.
Regarding G52U C53G U54C U78C C97U, the “polymerase ribozyme fitness (log ratio)” value was -1.14.
As to C49A U112A G127C, the “polymerase ribozyme fitness (log ratio)” value is -0.179.
As to C49U C64A U81A G93U C114G C123U, the “polymerase ribozyme fitness (log ratio)” value is -6.8.
As for G51U G61A, the figure is -3.03.
The result for A50C G71A U133C reads -0.939.
The result for G51U U112A A118U reads -3.5; that for G52A G69A A90C U116G G117C A118G, -6.12; that for C49A G61A G127C G135C, -0.458.
As to C49G C82G, the “polymerase ribozyme fitness (log ratio)” value is -1.03.
As for C49A G63U G117A, the figure is -3.12; as for C49G U130A, -1.8.
As for A50U G52A A84U G128U, the figure is -5.16.
As for C49A G69U U81A C89A G93U C115G C123G, the figure is -2.93; as for G52C G69A C114U, -5.1.
With A50G U87G, the “polymerase ribozyme fitness (log ratio)” value came to 0.406.
On to G51U A68U U106G G110U C124A, for which the “polymerase ribozyme fitness (log ratio)” value was -5.92.
The result for C49U C53U C70U C79U reads -4.07.
The result for A50C G61U C114U A118G reads -3.14; that for C49A U78A G117C G128A U131C U133G, -6.98.
The result for C49G G117U reads -2.86; that for C49G G117C, -4.72.
In the case of A50U C99U, the “polymerase ribozyme fitness (log ratio)” value was -5.15.
The result for G52U G58C G77A U87C U96G reads -1.61.
The result for C49G U109C reads -4.72.
In the case of G52C C72A C104U C115G U116C U126G, the “polymerase ribozyme fitness (log ratio)” value was -6.41.
As for G51A C56G C124U, the figure is -1.06; as for C49G C62G C114A G117C, -7.8; as for G51A G65C C114G, -6.09.
The result for G52A C114A reads -2.73; that for G52A C114U, -2.52; that for G51U C64G A83C G113U C123G G127A, -6.21.
As for C49G U81G, the figure is -3.01.
In the case of G51U G77C A91C C94A, the “polymerase ribozyme fitness (log ratio)” value is -5.09.
Consider A50C C56G A121U, for which the “polymerase ribozyme fitness (log ratio)” value came out at 1.61.
Consider A50U C64U, for which the “polymerase ribozyme fitness (log ratio)” value is -0.813.
The result for G51A C85U reads -3.77.
In the case of G51A U54G C73G C98U, the “polymerase ribozyme fitness (log ratio)” value is -5.39.
The result for C49G C88U C94U reads -0.799; that for C49U C53U, -0.552.
Consider A50C G63C C97U, for which the “polymerase ribozyme fitness (log ratio)” value is -1.52.
The result for C49U C104A reads -2.12; that for C49U U81C A95G C102G G110U G135U, -7.51.
As for C49A G71U, the figure is -0.754; as for A50U G117U, -2.6.
The result for G52A U55C C56A G57C reads 0.195; that for A50C C72A, 0.00514; that for A50U G61U C86U, -1.34.
In the case of A50U U116A, the “polymerase ribozyme fitness (log ratio)” value is -4.25.
Regarding C49G U59G C62U G122A, the “polymerase ribozyme fitness (log ratio)” value was -1.61.
In the case of C49U A75U C79U U116A U130C, the “polymerase ribozyme fitness (log ratio)” value is -4.3.
The result for C49A C102A A121U G122U U133C reads -0.655; that for G51U C73U U112C, -1.32; that for A50G C72G C79A U132C, -1.72.
The result for C49A U92G G117U C123U reads -6.98; that for G51U C70U, -3.37; that for G51U C70G, -5.67.
The result for C49U G51U C62U C80A G113A reads -4.27.
As to G51A G60U G113A U116A, the “polymerase ribozyme fitness (log ratio)” value is -7.25.
As for C49A G57A G110C, the figure is -6.31.
The result for C49U C101A reads -1.69; that for C49A G93C U112A, 0.173.
In the case of G51C C64U, the “polymerase ribozyme fitness (log ratio)” value was -3.9.
Turning to G51A G57C C114A, the “polymerase ribozyme fitness (log ratio)” value was -3.38.
The result for A50C reads -0.212; that for A50U, -0.868; that for A50G, 0.111.
As for G52A U78C C86A C124G G128A, the figure is -1.71.
As for G51C U129A, the figure is -5.21; as for C49G G71C A84U G110C, -6.35.
With G52U G61C G122A U125G, the “polymerase ribozyme fitness (log ratio)” value was -1.37.
